Target: F-actin (rabbit, UniProt P68135 1-377)
Assay: co-sedimentation

B1: 83-kD nonmuscle caldesmon (natural protein)
chain: MLSRSGSQGRRCLATLSQIAYQRNDDDEEEAARERRRRARQERLRQKQEEESLGQVTDQVEAHVQNSAPDEESKPATANAQVEGDEEAALLERLARREERRQKRLQEALERQKEFDPTITDGSLSVPSRRMQNNSAENETAEGEEKGESRSGRYEMEETEVVITSYQKNSYQDAEDKKKEEKEEEEEEEKLKGGNLGENQIKDEKIKKDKEPKEEVKNFLDRKKGFTEVKAQNGEFMTHKLKQTENAFSPSRSGGRASGDKEAEGAPQVEAGKRLEELRRRRGETESEEFEKLKQKQQEAALELEELKKKREERRKVLEEEEQRRKQEEADRKAREEEEKRRLKEEIERRRAEAAEKRQKMPEDGLSEDKKPFKCFTPKGSSLKIEERAEFLNKSVQKSGVKSTHQAAVVSKIDSRLEQYTNAIEGTKASKPMKPAASDLPVPAEGVRNIKSMWEKGSVFSSPSASGTPNKETAGLKVGVSSRINEWLTKSPDGNKSPAPKPSDLRPGDVSGKRNLWEKQSVDKVTSPTKV
  stoichiometry N: ~6 actin monomers per 83-kD protein
